Data taken from paper PMC10382590, “Six states of Enterococcus hirae V-type ATPase reveals non-uniform rotor rotation during turnover” (Communications Biology, 2023).

B1: Enterococcus hirae V-ATPase EG peripheral stalk (complex)
chain 1: MPIDKIITQINETAQLERASFEEMKRKEIDQKFEVKKWQIEADFQKEKASKLEEIERSYRQLRNKQKMQVKQEILNAKQEVLQRLFTEATLQLENEPKEEQLALMKQMIQTLPINGTARLIPGEKSADILTPAVIAEWNEELPFELIREDFTEKAQAGLIIDDAGIQYNFLFSHLIKEIQETMSAEIAKELFD
chain 2: MARILTRIKEAEENNQKKEEQVKAELAQYEQLKNNELIDLNKEFQERLTKLMKEKEKNEEEVTEDEQHKLELILEQFRQKVLEIEKTYLEKEEEEIAKKKNLTNEIIERMKQNNGCH
notes: E-subunit of the V-type Na+-ATPase of Enterococcus hirae; G-subunit of the V-type Na+-ATPase of Enterococcus hirae; Two such stalks stand in the complex; E and G were modelled by homology (templates PDB 4DT0 and 5GAS of other species); also called EG stalk complex; EG stalks; source: E. coli, recombinant; purified as part of the whole EhV-ATPase complex (Ni-NTA, Superdex 200, 0.05% DDM)
B2: Enterococcus hirae V-ATPase D-subunit (natural protein)
chain: MRLNVNPTRMELTRLKKQLTTATRGHKLLKDKQDELMRQFILLIRKNNELRQAIEKETQTAMKDFVLAKSTVEEAFIDELLALPAENVSISVVEKNIMSVKVPLMNFQYDETLNETPLEYGYLHSNAELDRSIDGFTQLLPKLLKLAEVEKTCQLMAEEIEKTRRRVNALEYMTIPQLEETIYYIKMKLEENERAEVTRLIKVKNMGTEE
notes: D-subunit (rotor shaft) of the V-type Na+-ATPase of Enterococcus hirae; also called rotor D-subunit; source: E. coli, recombinant; purified as part of the whole EhV-ATPase complex (Ni-NTA, Superdex 200, 0.05% DDM)
B3: Enterococcus hirae V-ATPase d-subunit (natural protein, UniProt P43456 1-328, looked up)
chain: MEYHELNPLIRGRELELISKDTFEQMIQTDSIDSLGEILQSTIYQPYIYDGFDKDFEANLSQERSKLFQWLKESAPEPEIVWIYTMRYTFHNLKVLTKAEITGQNLDHLYIHDGFYSLEVLKDAIHTQVSVELPDSLMDYIREVHEYCEESTILQGIDVIYDRCFLTEQRRLGEQLGYPELLEEIIAFIDLTNITTTARGILQHRSAGFMTTVISSSGSIPKDTLLSFVRGEMASFTQFLLTTDYSELLKQVIHEEQIDLVSLEQLKDDYLSSFYQVAQTQAFGPLPLLAFLNAKEVESKNLRLLIIGKRNHFSLEQLKERMRQVYDL
notes: d-subunit (terminus of the rotor shaft) of the V-type Na+-ATPase of Enterococcus hirae; Modelled by homology (I-TASSER, template PDB 1R5Z of another species) and fitted as a rigid body; also called rotor shaft terminus; source: E. coli, recombinant; purified as part of the whole EhV-ATPase complex (Ni-NTA, Superdex 200, 0.05% DDM)

Assays:
[1] = target: T1, Enterococcus hirae V-ATPase a-subunit (Enterococcus hirae, UniProt P43439 1-664); assay: cryo-EM structure; detergent-solubilised (0.05% DDM) whole EhV-ATPase, 0.13 mM, with 7 mM ATP, 100 mM Na+ and Mg2+, vitrified during turnover; six states (1, 1', 2, 2', 3, 3') sorted from one sample, whole-complex maps 4.3-7.7 A, V1-focussed maps 3.8-7.7 A; crystal structures and homology models fitted into the maps; conditions: both partners purified
T1 construct: a-subunit (stator, membrane-integrated region and extrinsic arm) of the V-type Na+-ATPase of Enterococcus hirae; Modelled by homology (I-TASSER, template PDB 6C6L of another species); also called stator a-subunit; source: E. coli, recombinant; purified as part of the whole EhV-ATPase complex (Ni-NTA, Superdex 200, 0.05% DDM)
T1 sequence (looked up): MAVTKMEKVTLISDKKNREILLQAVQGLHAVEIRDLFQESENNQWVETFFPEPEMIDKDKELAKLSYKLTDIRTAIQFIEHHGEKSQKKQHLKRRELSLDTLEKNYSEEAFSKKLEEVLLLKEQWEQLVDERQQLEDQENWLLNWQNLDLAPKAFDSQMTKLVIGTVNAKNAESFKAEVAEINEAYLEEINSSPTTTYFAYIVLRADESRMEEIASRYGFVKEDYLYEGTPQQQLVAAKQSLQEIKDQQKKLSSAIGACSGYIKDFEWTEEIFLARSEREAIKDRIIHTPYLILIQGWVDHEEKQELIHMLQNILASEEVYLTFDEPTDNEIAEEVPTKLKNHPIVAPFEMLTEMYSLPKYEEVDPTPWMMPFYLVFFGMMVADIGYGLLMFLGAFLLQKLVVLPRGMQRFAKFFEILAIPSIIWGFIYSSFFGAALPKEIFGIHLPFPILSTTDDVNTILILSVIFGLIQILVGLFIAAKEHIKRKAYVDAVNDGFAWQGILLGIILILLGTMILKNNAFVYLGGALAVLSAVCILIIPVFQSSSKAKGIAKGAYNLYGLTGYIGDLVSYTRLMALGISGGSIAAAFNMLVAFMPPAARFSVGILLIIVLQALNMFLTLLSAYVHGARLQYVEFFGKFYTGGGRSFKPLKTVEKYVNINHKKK

[2] = target: B3; assay: as above; conditions: both partners purified

B1: binds [1].

B2: binds [2].

B3: binds [1].
